From patent publication US20250276057A1

Target: IgE antibodies in four Pru p 7 reactive human sera
Test: ImmunoCAP IgE inhibition, inhibitor in solution at 20 ug/mL, rPru p 7 on solid phase

percent inhibition of IgE binding to rPru p 7 (fourth serum): 80%
B1: recombinant Cup s GRPb (protein)
chain: AQIDCDKECNRRCSKASLHDRCLKYCGICCEKCHCVPPGTAGNEDVCPCYAHLKNSKGGHKCP
